Key:
[1] = biological target: T1, recombinant human ROR1 (full-length extracellular domain) (human, UniProt Q01973 30-406); test: ELISA, ROR1 coated on the plate, Fab detected with HRP anti-FLAG antibody
T1 construct: extracellular domain; Bought protein; also called human ROR1 protein; full extracellular domain
Description: The hexahistidine-tagged Fabs 2H3 and 3A3 were expressed in E. coli strain HB2151 and purified from the soluble fraction of periplasm by using the Ni-NTA resin. Then ELISA was performed by using standard protocols to measure binding affinity to recombinant human ROR1 (full-length extracellular domain). Briefly, the recombinant human ROR1 (ACROBiosystems) was coated on Corning EIA/RIA high-binding 96-well plates (Corning Inc.) at 50 ng per well overnight at 4° C. and blocked with 3% nonfat milk in PBS (pH7.4). Fivefold serially diluted antibodies were added and incubated at room temperature for 2 h. The plates were washed with PBS containing 0.05% Tween 20. Bound antibodies were detected by HRP-conjugated anti-FLAG tag antibody (Sino Biological). The assay was developed at room temperature with TMB substrate (Solarbio) and OD value was measured at 450 nm with a microplate reader.

[2] = biological target: T1, recombinant human ROR1 (full-length …); test: ELISA, antigen coated on the plate, biotinylated antibody detected with HRP streptavidin
Description: (§1) ELISA was performed according to standard protocols, to determine binding affinity of anti-ROR1 mAB 2H3 and 3A3 to full extracellular domain and individual extracellular Ig-like domain, frizzled domain, and kringle domain of human ROR1. Briefly, recombinant human ROR1 (AcroBiosystems) were coated on Corning EIA/RIA high-binding 96-well plates (Corning Inc.) at 50 ng per well overnight at 4° C. and blocked with 3% nonfat milk in PBS (pH7.4). Fivefold serially diluted biotinylated antibodies were added and incubated at room temperature for 2 h. The plates were washed with PBS containing 0.05% Tween 20. Bound antibodies were detected by HRP-conjugated streptavidin (Sino Biological). The assay was developed at room temperature with TMB substrate (Solarbio) and monitored at 450 nm with a microplate reader. The half-maximal binding (EC₅₀) was calculated by fitting the data to the Langmuir adsorption isotherm.

[3] = biological target: T2, human/Cynomolgus/Rhesus macaque ROR1 (308-395, Kringle domain) protein (human/Cynomolgus/Rhesus macaque, UniProt Q01973 308-395); test: as above
T2 construct: range 308-395; Bought protein; also called kringle domain of ROR1
Description: as §1

[4] = biological target: T3, human ROR1 (39-151, Ig-like domain) protein (human, UniProt Q01973 39-151); test: as above
T3 construct: range 39-151; Bought protein; also called Ig-like domain of ROR1
Description: as §1

T1 sequence (Q01973 30-406): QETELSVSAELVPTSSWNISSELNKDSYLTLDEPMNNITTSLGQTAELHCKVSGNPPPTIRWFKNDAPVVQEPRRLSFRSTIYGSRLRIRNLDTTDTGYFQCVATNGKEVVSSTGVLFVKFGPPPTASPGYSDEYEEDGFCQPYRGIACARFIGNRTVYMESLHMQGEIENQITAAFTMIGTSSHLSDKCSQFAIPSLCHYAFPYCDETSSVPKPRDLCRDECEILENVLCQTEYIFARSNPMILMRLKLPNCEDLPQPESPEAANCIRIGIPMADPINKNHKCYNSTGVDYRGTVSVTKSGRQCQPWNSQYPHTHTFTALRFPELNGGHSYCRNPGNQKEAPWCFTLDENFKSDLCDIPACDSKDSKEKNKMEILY
T2 sequence (Q01973 308-395 limits assumed, form in doubt): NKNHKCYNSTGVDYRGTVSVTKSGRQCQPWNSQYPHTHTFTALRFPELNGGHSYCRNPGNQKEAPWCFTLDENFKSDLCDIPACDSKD
T3 sequence (Q01973 39-151 limits assumed, form in doubt): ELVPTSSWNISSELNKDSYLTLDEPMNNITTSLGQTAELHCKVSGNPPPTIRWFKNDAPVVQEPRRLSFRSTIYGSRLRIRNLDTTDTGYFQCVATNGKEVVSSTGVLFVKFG

B1: anti-ROR1 2H3 Fab (Fab, V domains shown)
VH: QVQLVQSGAEVKKTGSSVKVSCKASGYTFTYRYLHWVRQAPGQALEWMGWITPFNGNTNYAQKFQDRVTITRDRSMSTAYMELSSLRSEDTAMYYCARSGPRGDYVLDYWGQGTLVTVSS
VL: EIVLTQSPATLSLSPGERATLSCRASQSVSSYLAWYQQKPGQAPRLLIYDASNRATGIPARFSGSGSGTDFTLTISSLEPEDFAVYYCQQRSNWPLTFGGGTKVEIK
notes: Human Fab from a phage library, kappa light chain, hexahistidine-tagged, expressed in E. coli HB2151; also called Fab clone 2H3
EC50 [1]: ~16 nM

B2: anti-ROR1 monoclonal antibody 2H3 (antibody, V domains shown)
VH: QVQLVQSGAEVKKTGSSVKVSCKASGYTFTYRYLHWVRQAPGQALEWMGWITPFNGNTNYAQKFQDRVTITRDRSMSTAYMELSSLRSEDTAMYYCARSGPRGDYVLDYWGQGTLVTVSS
VL: EIVLTQSPATLSLSPGERATLSCRASQSVSSYLAWYQQKPGQAPRLLIYDASNRATGIPARFSGSGSGTDFTLTISSLEPEDFAVYYCQQRSNWPLTFGGGTKVEIKR
notes: Intact human IgG1 kappa (Fd of the Fab fused to human IgG1 Fc), about 150 kDa non-reduced; also called 2H3 mAb; 2H3 Mab
EC50 [2]: 0.2 nM | EC50 [3]: 1.2 nM

B3: anti-ROR1 3A3 Fab (Fab, V domains shown)
VH: EVQLVESGGGVVQPGRSLRLSCAASGFTFSSYGMHWVRQAPGKGLEWVAVISYDGSNKYYADSVKGRFTISRDNSKNTLYLQMNSLRAEDTAVYYCAKDLDYSLWFDPWGQGTLVTVSS
VL: DVVMTQSPLSLPVTPGEPASISCRSSQSLLQSNGYNYVEWFLQKPGQSPQLLIYLGSYRASGVPDRFSGSGSGTDFTLKISRVEAEDVGVYYCMQGTHWPLFTFGPGTKVDIK
notes: Human Fab from a phage library, kappa light chain, hexahistidine-tagged, expressed in E. coli HB2151; detected with an anti-FLAG antibody; also called Fab clone 3A3
EC50 [1]: ~36 nM

B4: anti-ROR1 monoclonal antibody 3A3 (antibody, V domains shown)
VH: EVQLVESGGGVVQPGRSLRLSCAASGFTFSSYGMHWVRQAPGKGLEWVAVISYDGSNKYYADSVKGRFTISRDNSKNTLYLQMNSLRAEDTAVYYCAKDLDYSLWFDPWGQGTLVTVSS
VL: DVVMTQSPLSLPVTPGEPASISCRSSQSLLQSNGYNYVEWFLQKPGQSPQLLIYLGSYRASGVPDRFSGSGSGTDFTLKISRVEAEDVGVYYCMQGTHWPLFTFGPGTKVDIKR
notes: Intact human IgG1 kappa (Fd of the Fab fused to human IgG1 Fc), about 150 kDa non-reduced; also called 3A3 mAb; 3A3 Mab
EC50 [2]: 0.18 nM | EC50 [4]: 3.1 nM
